No end group written: not given here.

The target in one experiment is Rgg144 (recombinant, Streptococcus pneumoniae D39, SPD_0144) (Streptococcus pneumoniae D39). As to the kind of experiment: fluorescence polarisation.
Turning to SEWVIVIAFLTNL (also: FITC label, position not given here) [FITC-labeled SHP144 P21A], the Kd came to 1.7 µM.

As for AEWVIVIPFLTNL (also: FITC label, position not given here) [FITC-labeled SHP144 S14A], the Kd came to 8.1 µM. The same measure, in the same setting: to SEWVIVIPFLTAL (also: FITC label, position not given here) [FITC-labeled SHP144 N25A] belongs 3.3 µM; to SEWVIVAPFLTNL (also: FITC label, position not given here) [FITC-labeled SHP144 I20A], 23.5 µM.

On to SEWVIVIPFLTNL [unlabeled SHP144 (13-residue synthetic peptide, wild type)], for which the IC50 is 86.8 µM. Consider SAWVIVIPFLTNL (also: FITC label, position not given here) [FITC-labeled SHP144 E15A], for which the Kd worked out at 3.3 µM.

Turning to SEWVIVIPFLANL (also: FITC label, position not given here) [FITC-labeled SHP144 T24A], the Kd amounted to 3.3 µM. Same read-out and setting: the result for SEWVIVIPALTNL (also: FITC label, position not given here) [FITC-labeled SHP144 F22A] reads 7.1 µM; that for SEWVIVIPFATNL (also: FITC label, position not given here) [FITC-labeled SHP144 L23A], 4.3 µM; that for SEWVIVIPFLTNL (also: FITC label, position not given here) [FITC-labeled SHP144 (SHP144-C13), wild type], 6.6 µM. The same measure, in the same setting: the result for SEWVAVIPFLTNL (also: FITC label, position not given here) [FITC-labeled SHP144 I18A] reads > 100 µM; that for SEWVIVIPFLTNA (also: FITC label, position not given here) [FITC-labeled SHP144 L26A], 3.4 µM; that for SEAVIVIPFLTNL (also: FITC label, position not given here) [FITC-labeled SHP144 W16A], 50 µM. Same read-out and setting: to SEWAIVIPFLTNL (also: FITC label, position not given here) [FITC-labeled SHP144 V17A] belongs 9.7 µM. SEWVIAIPFLTNL (also: FITC label, position not given here) [FITC-labeled SHP144 V19A]: the Kd came out at 4 µM.

For the next experiment the target is unchanged. As to the kind of experiment: SEC. For orientation: Size exclusion chromatography separates by hydrodynamic size, large species first.
Take “Rgg144 (recombinant, Streptococcus pneumoniae D39, SPD_0144) (natural protein)”: the stoichiometry N was 2.

For orientation: Kd means the free concentration of one partner at which half of the binding sites on the other are occupied at equilibrium, for simple one-to-one binding. As a reminder, the IC50 is the concentration that gives 50% inhibition. In general, stoichiometry N refers to the number of molecules, sites or subunits per partner or assembly.

The values above are taken from article PMC9233744.
